Drawing on paper PMC9381713, “Structural features of Dnase1L3 responsible for serum antigen clearance”, this text covers Kd for three molecules.

In one data set the test system is Dnase1. The experiment in a line: fluorescence polarization. Particulars: FP: 50 mM Hepes pH 7.5 (Results say pH 7.4), 100 mM NaCl, 0.1 mM EDTA (1 mM for Dnase1L3/Dnase1), 1% glycerol, 1 mM TCEP, 0.1% PEG 6000, 20 nM dsDNA, 30 min at …. A general note: Fluorescence polarisation rises when a labelled molecule tumbles more slowly, as on binding a larger partner.
Data set [1] concerns the target T1, Dnase1L3 CTD peptide (cleaved from SH3-CTD) (human, UniProt Q13609).
T1 chain: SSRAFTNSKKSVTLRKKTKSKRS
Nature of the data set: fluorescence polarization; 100 mM NaCl, 0.1 mM EDTA; FP: 50 mM Hepes pH 7.5 (Results say pH 7.4), 100 mM NaCl, 0.1 mM EDTA (1 mM for Dnase1L3/Dnase1), 1% glycerol, 1 mM TCEP, 0.1% PEG 6000, 20 nM dsDNA, 30 min at. Particulars: protein: recombinant; tags: TEV-cleaved from His-SH3 fusion; label: 5'-FAM on strand 1; blunt.

A further data set concerns the target T2, Dnase1L3 WT (human, UniProt Q13609 21-305).
T2 sequence: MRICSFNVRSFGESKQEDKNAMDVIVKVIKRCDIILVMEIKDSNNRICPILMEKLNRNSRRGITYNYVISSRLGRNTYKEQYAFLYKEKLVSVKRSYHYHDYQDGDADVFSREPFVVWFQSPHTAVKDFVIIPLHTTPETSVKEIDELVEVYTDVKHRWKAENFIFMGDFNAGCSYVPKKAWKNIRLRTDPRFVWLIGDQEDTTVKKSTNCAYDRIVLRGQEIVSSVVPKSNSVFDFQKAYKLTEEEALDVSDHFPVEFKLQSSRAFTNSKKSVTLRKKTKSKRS
The experiment in a line: fluorescence polarization; 1 mM EDTA; FP: 50 mM Hepes pH 7.5 (Results say pH 7.4), 100 mM NaCl, 0.1 mM EDTA (1 mM for Dnase1L3/Dnase1), 1% glycerol, 1 mM TCEP, 0.1% PEG 6000, 20 nM dsDNA, 30 min at. Conditions: protein: recombinant; tags: His-MBP removed by TEV; blunt.

For another data set, the target named is T3, Dnase1L3 R132A (human, UniProt Q13609 21-305, R132A).
T3 sequence: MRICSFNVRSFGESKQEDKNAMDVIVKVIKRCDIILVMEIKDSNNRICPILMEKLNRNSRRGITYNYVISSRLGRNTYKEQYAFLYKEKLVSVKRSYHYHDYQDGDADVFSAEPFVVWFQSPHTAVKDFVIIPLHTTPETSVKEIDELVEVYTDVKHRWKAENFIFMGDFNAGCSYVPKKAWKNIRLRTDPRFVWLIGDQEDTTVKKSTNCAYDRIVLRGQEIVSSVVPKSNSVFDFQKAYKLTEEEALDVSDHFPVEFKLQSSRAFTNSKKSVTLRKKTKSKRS
The data set is described as above. Particulars: protein: recombinant; blunt.

In the data set with Dnase1, “GTGTTCGGACTCTGCCTCAAGACGGTAGTCAACGTGCTTG (double strand) [FITC 40-mer dsDNA]” registered a Kd of 2.9 µM.

B1: FAM 40-mer dsDNA (dsDNA)
DNA 1: GTGTTCGGACTCTGCCTCAAGACGGTAGTCAACGTGCTTG
DNA 2: CAAGCACGTTGACTACCGTCTTGAGGCAGAGTCCGAACAC
Take B1: the dissociation constant Kd in data set [1] was 4.9 µM.

B2: FITC 40-mer dsDNA (dsDNA)
DNA 1: GTGTTCGGACTCTGCCTCAAGACGGTAGTCAACGTGCTTG
DNA 2: CAAGCACGTTGACTACCGTCTTGAGGCAGAGTCCGAACAC
In the case of B2, the Kd is 0.99 ± 0.33 µM with Dnase1L3 WT and 4.95 µM with Dnase1L3 R132A.

In general, Kd refers to the concentration at which binding is half-saturated.
